The values that follow come from article PMC11832932.

In this assay the target is HSC70 (UniProt P11142). As to the kind of experiment: Flag IP, blot for HA-HSC70. The conditions noted are these: reference: wild type, H2O2-treated cells; sites S371.

With “PHGDH (from UniProt O43175) S371A, H2O2-treated cells”, the “binding against the reference” value is reported as “weaker”.
